Assay results reported in US20240132578A1.

How the values were obtained:
Assay in all cases: cell-based or functional assay
[1] = molecular target: HIV-1 CMU02 Env (pseudovirus) (HIV-1)
[2] = molecular target: HIV-1 Env of pseudovirus MGRM-G-014 (HIV-1)
[3] = molecular target: HIV-1 Env of isolate 92UG024 (clade D pseudovirus) (HIV-1)
[4] = molecular target: HIV-1 CMU02 envelope (Env) on pseudovirus (HIV-1)
[5] = molecular target: HIV-1 92RW021 envelope glycoprotein (Env) on pseudovirus (HIV-1 (clade A))
[6] = molecular target: HIV-1 IAVI-C22 envelope (Env) on pseudovirus (HIV-1)
[7] = molecular target: HIV-1 Env of isolate 93IN905 (Clade C) (HIV-1)
[8] = molecular target: HIV-1 Env of pseudovirus MGRM-F1-021 (clade F) (HIV-1)
[9] = molecular target: HIV-1 MGRM-AG-006 Env (pseudovirus) (HIV-1)
[10] = molecular target: HIV-1 Env of isolate VLGCB3, clade B (HIV-1)
[11] = molecular target: HIV-1 MGRM-AE-006 Env (pseudovirus) (HIV-1)
[12] = molecular target: HIV-1 Env of pseudovirus MGRM-G-013 (HIV-1)
[13] = molecular target: HIV-1 envelope glycoprotein (Env) of isolate MGRM-C-025 (HIV-1)
[14] = molecular target: HIV-1 MGRM-AG-005 Env (pseudovirus) (HIV-1)
[15] = molecular target: HIV-1 MGRM-AG-009 Env (pseudovirus) (HIV-1)

1443_C16 (PG16) (TCN-116) (antibody), sequence (VH): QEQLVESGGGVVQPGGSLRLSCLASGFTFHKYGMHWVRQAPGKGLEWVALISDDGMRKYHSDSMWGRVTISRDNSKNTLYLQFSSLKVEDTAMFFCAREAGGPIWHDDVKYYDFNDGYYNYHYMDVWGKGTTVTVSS
1443_C16 (PG16) (TCN-116) (antibody), sequence (VL): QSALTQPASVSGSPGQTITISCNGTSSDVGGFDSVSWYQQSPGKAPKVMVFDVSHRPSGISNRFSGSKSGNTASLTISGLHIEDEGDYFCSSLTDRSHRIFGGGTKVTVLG

Substance	IC50 (µg/ml), pseudovirus neutralization [1] [µg/mL]	IC50 (µg/ml), pseudovirus neutralization [2] [µg/mL]	IC50, pseudovirus neutralization [3] [µg/mL]	neutralization IC50 [4] [µg/mL]	IC50 (µg/ml), pseudovirus neutralization [5] [µg/mL]	neutralization IC50 [6] [µg/mL]	IC90 (neutralization of pseudovirus) [7] [µg/mL]	IC50 [8] [µg/mL]	IC50 (µg/ml), pseudovirus neutralization [9] [µg/mL]	IC50 (µg/ml), pseudovirus neutralization [10] [µg/mL]	IC50 (µg/ml), pseudovirus neutralization [11] [µg/mL]	IC50 (µg/ml), pseudovirus neutralization [12] [µg/mL]	IC50 (µg/ml), pseudovirus neutralization [13] [µg/mL]	IC50 (µg/ml), pseudovirus neutralization [14] [µg/mL]	IC50 (µg/ml), pseudovirus neutralization [15] [µg/mL]
4E10 (antibody)	0.72	13.7	2.17	0.59	4.87	1.02	12.8	1.87	1.76	5.76	0.23	1.15	5.58	2.13	31.4
1443_C16 (PG16) (TCN-116) (antibody)	43.6	6.98	24	> 50	0.11	0.0687	> 50	> 50	> 50	0.4	0.03	> 50	0.04	> 50	> 50
b12 (antibody)	29.3	> 50	45.6	4.25	> 50	3.6	> 50	> 50	> 50	0.15	> 50	> 50	> 50	> 50	> 50
